test system: Escherichia coli TOP10; experiment: shrunken log2 fold change of peptide-encoding DNA abundance (4.5 h post-induction vs induction); higher = less antimicrobial activity (less host growth inhibition); details: time post-induction: 4.5 h; library: site-saturation at positions 5, 18, 19, 20
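Note: peptides expressed intracellularly from a pBAD plasmid library in pooled LB shake-flask culture, induced with 0.3% L-arabinose, DNA abundance read by NGS, three biological replicates, DESeq2 with apeglm shrinkage.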

In order of rising “shrunken log2 fold change” value:
1. RRIRYRPPRLPRPRPRPFDRPRP  -1.29
2. RRIRYRPPRLPRPRPRPCTKPRP  -1.15
3. RRIRPRPPRLPRPRPRPIYNPRP  -0.837
4. RRIRYRPPRLPRPRPRPYKGPRP  -0.721
5. RRIRARPPRLPRPRPRPCKLPRP  -0.693
6. RRIRVRPPRLPRPRPRPIKCPRP  -0.633
7. RRIRPRPPRLPRPRPRPFYTPRP  -0.429
8. RRIRLRPPRLPRPRPRPQHTPRP  -0.418
9. RRIRFRPPRLPRPRPRPAYPPRP  -0.412
10. RRIRFRPPRLPRPRPRPYRGPRP  -0.384
11. RRIRYRPPRLPRPRPRPGSRPRP  -0.3
12. RRIRERPPRLPRPRPRPKTNPRP  -0.293
13. RRIRIRPPRLPRPRPRPANPPRP  -0.29
14. RRIRKRPPRLPRPRPRPSLRPRP  -0.278
15. RRIRGRPPRLPRPRPRPWPYPRP  -0.265
16. RRIRNRPPRLPRPRPRPGWIPRP  -0.265
17. RRIRRRPPRLPRPRPRPIHPPRP  -0.261
18. RRIRYRPPRLPRPRPRPYNPPRP  -0.256
19. RRIRVRPPRLPRPRPRPDFYPRP  -0.25
20. RRIRVRPPRLPRPRPRPNMMPRP  -0.248
21. RRIRTRPPRLPRPRPRPDITPRP  -0.236
22. RRIRSRPPRLPRPRPRPQYRPRP  -0.234
23. RRIRFRPPRLPRPRPRPHRQPRP  -0.228
24. RRIRTRPPRLPRPRPRPKFRPRP  -0.204
25. RRIRERPPRLPRPRPRPWRYPRP  -0.176
26. RRIRDRPPRLPRPRPRPIGYPRP  -0.174
27. RRIRTRPPRLPRPRPRPMSMPRP  -0.171
28. RRIRSRPPRLPRPRPRPYNCPRP  -0.171
29. RRIRNRPPRLPRPRPRPCNYPRP  -0.164
30. RRIRSRPPRLPRPRPRPRTIPRP  -0.141
31. RRIRWRPPRLPRPRPRPMNGPRP  -0.131
32. RRIRPRPPRLPRPRPRPTMDPRP  -0.125
33. RRIRCRPPRLPRPRPRPIGMPRP  -0.121
34. RRIRRRPPRLPRPRPRPICNPRP  -0.12
35. RRIRVRPPRLPRPRPRPTISPRP  -0.12
36. RRIRCRPPRLPRPRPRPWHMPRP  -0.119
37. RRIRVRPPRLPRPRPRPMPNPRP  -0.116
38. RRIRYRPPRLPRPRPRPCQVPRP  -0.116
39. RRIRQRPPRLPRPRPRPFEFPRP  -0.109
40. RRIRTRPPRLPRPRPRPDDVPRP  -0.102
41. RRIRSRPPRLPRPRPRPFDPPRP  -0.102
42. RRIRIRPPRLPRPRPRPDMQPRP  -0.0983
43. RRIRIRPPRLPRPRPRPARIPRP  -0.0826
44. RRIRLRPPRLPRPRPRPPVKPRP  -0.0732
45. RRIRRRPPRLPRPRPRPFNYPRP  -0.0716
46. RRIRQRPPRLPRPRPRPNEGPRP  -0.07
47. RRIRQRPPRLPRPRPRPMLFPRP  -0.0627
48. RRIRLRPPRLPRPRPRPHKIPRP  -0.0592
49. RRIRNRPPRLPRPRPRPINEPRP  -0.056
50. RRIRERPPRLPRPRPRPEWQPRP  -0.0536
51. RRIRFRPPRLPRPRPRPSFWPRP  -0.0521
52. RRIRSRPPRLPRPRPRPRIRPRP  -0.0466
53. RRIRCRPPRLPRPRPRPWSFPRP  -0.0435
54. RRIRNRPPRLPRPRPRPKCMPRP  -0.0394
55. RRIRNRPPRLPRPRPRPGFHPRP  -0.0379
56. RRIRMRPPRLPRPRPRPYGKPRP  -0.0311
57. RRIRNRPPRLPRPRPRPCCDPRP  -0.0282
58. RRIRLRPPRLPRPRPRPDLLPRP  -0.0261
59. RRIRYRPPRLPRPRPRPRCGPRP  -0.0223
60. RRIRERPPRLPRPRPRPDQEPRP  -0.0156
61. RRIRTRPPRLPRPRPRPEYLPRP  -0.0156
62. RRIRYRPPRLPRPRPRPVQNPRP  -0.0153
63. RRIRKRPPRLPRPRPRPMMLPRP  -0.0136
64. RRIRTRPPRLPRPRPRPCTGPRP  -0.0103
65. RRIRNRPPRLPRPRPRPCKMPRP  -0.00674
66. RRIRERPPRLPRPRPRPPWDPRP  -0.0062
67. RRIRHRPPRLPRPRPRPPMCPRP  -0.00483
68. RRIRNRPPRLPRPRPRPKKWPRP  -0.00407
69. RRIRQRPPRLPRPRPRPCARPRP  -0.0014
70. RRIRTRPPRLPRPRPRPTIGPRP  -0.000966
71. RRIRNRPPRLPRPRPRPCSIPRP  -0.000921
72. RRIRNRPPRLPRPRPRPGRYPRP  0.00112
73. RRIRTRPPRLPRPRPRPVMKPRP  0.00771
74. RRIRWRPPRLPRPRPRPTNDPRP  0.0116
75. RRIRTRPPRLPRPRPRPGGIPRP  0.0232
76. RRIRKRPPRLPRPRPRPDFEPRP  0.0238
77. RRIRSRPPRLPRPRPRPHPSPRP  0.0251
78. RRIRTRPPRLPRPRPRPKVAPRP  0.0317
79. RRIRPRPPRLPRPRPRPSRKPRP  0.0349
80. RRIRERPPRLPRPRPRPRVDPRP  0.0531
81. RRIRGRPPRLPRPRPRPSFTPRP  0.079
82. RRIRMRPPRLPRPRPRPSMDPRP  0.0865
83. RRIRKRPPRLPRPRPRPITVPRP  0.0944
84. RRIRLRPPRLPRPRPRPEPAPRP  0.0966
85. RRIRGRPPRLPRPRPRPQNTPRP  0.0999
86. RRIRSRPPRLPRPRPRPAGDPRP  0.116
87. RRIRIRPPRLPRPRPRPMGRPRP  0.126
88. RRIRGRPPRLPRPRPRPFSEPRP  0.144
89. RRIRRRPPRLPRPRPRPKNFPRP  0.151
90. RRIRGRPPRLPRPRPRPYTFPRP  0.151
91. RRIRPRPPRLPRPRPRPERIPRP  0.152
92. RRIRLRPPRLPRPRPRPWMWPRP  0.154
93. RRIRDRPPRLPRPRPRPHAMPRP  0.158
94. RRIRTRPPRLPRPRPRPAAIPRP  0.163
95. RRIRGRPPRLPRPRPRPRFMPRP  0.172
96. RRIRMRPPRLPRPRPRPPQKPRP  0.173
97. RRIRERPPRLPRPRPRPKAGPRP  0.174
98. RRIRPRPPRLPRPRPRPRHRPRP  0.177
99. RRIRLRPPRLPRPRPRPCFAPRP  0.179
100. RRIRTRPPRLPRPRPRPNWWPRP  0.188
101. RRIRARPPRLPRPRPRPNAIPRP  0.201
102. RRIRGRPPRLPRPRPRPVNYPRP  0.203
103. RRIRWRPPRLPRPRPRPPFSPRP  0.222
104. RRIRGRPPRLPRPRPRPQSPPRP  0.225
105. RRIRQRPPRLPRPRPRPAQDPRP  0.226
106. RRIRARPPRLPRPRPRPPWVPRP  0.254
107. RRIRKRPPRLPRPRPRPNIAPRP  0.262
108. RRIRRRPPRLPRPRPRPQQPPRP  0.325
109. RRIRIRPPRLPRPRPRPRWPPRP  0.379
110. RRIRWRPPRLPRPRPRPDNEPRP  0.403
111. RRIRPRPPRLPRPRPRPVGPPRP  0.427
112. RRIRHRPPRLPRPRPRPAWAPRP  0.48
113. RRIRRRPPRLPRPRPRPRMHPRP  0.516
114. RRIRPRPPRLPRPRPRPVFWPRP  0.546
115. RRIRGRPPRLPRPRPRPPTLPRP  0.596
116. RRIRGRPPRLPRPRPRPQTLPRP  0.614
117. RRIRGRPPRLPRPRPRPPHFPRP  0.67
118. RRIRMRPPRLPRPRPRPGGNPRP  0.671
119. RRIRGRPPRLPRPRPRPAITPRP  0.721
120. RRIRWRPPRLPRPRPRPPDGPRP  0.784
121. RRIRMRPPRLPRPRPRPALQPRP  0.791
122. RRIRGRPPRLPRPRPRPGECPRP  0.959
123. RRIRWRPPRLPRPRPRPARWPRP  1.07
124. RRIRARPPRLPRPRPRPDEAPRP  1.12
125. RRIRKRPPRLPRPRPRPRGPPRP  1.23
